Source: patent US20230392166A1

Target: GFP-BAX fusion protein
Experiment: cell-based or functional assay

Row | percentage of cells with GFP-BAX translocation to mitochondria within 3.5 h after 1 µM staurosporine, live imaging of D407 cells (control without BCLXL) | percentage of cells with punctate GFP-BAX (translocation to mitochondria) within 3.5 h after 1 µM staurosporine, live imaging of D407 cells | Substance
1 | > 95% | – | mCherry
2 | – | 8% | mCherry-BCLXL fusion protein (from UniProt Q64373 1-233)
